# Laboratory results from patent publication US7018801.
# How the values were obtained:
# [1] = biological target: T1, ICS (14 mer epitope that is part of human pro-IL-1beta) (human); test: method not stated; 'measured in a different context' from the protease experiment
# T1 chain: NEAYVHDGPVRSLN
# [2] = biological target: GM (GST - ICE-site linker - MBP model substrate for ICE) [GST: P08515]
# [3] = biological target: GG (GST - ICS linker - GFP model substrate for ICE) [GST: P08515]
# [4] = biological target: GG (GST - ICS linker - GFP model substrate for ICE) (human) [GST: P08515]; test: cell-based or functional assay
# [5] = biological target: GG (GST - ICS linker - GFP model substrate for ICE) (human) [GST: P08515]
# GM (GST - ICE-site linker - MBP model substrate for ICE) [GST: P08515], sequence (P08515 whole entry, looked up): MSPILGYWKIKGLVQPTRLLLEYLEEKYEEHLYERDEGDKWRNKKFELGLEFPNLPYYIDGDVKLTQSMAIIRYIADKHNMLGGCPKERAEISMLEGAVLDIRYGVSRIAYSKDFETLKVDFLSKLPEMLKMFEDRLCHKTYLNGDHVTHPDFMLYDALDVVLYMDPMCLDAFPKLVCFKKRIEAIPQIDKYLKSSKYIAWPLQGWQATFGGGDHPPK
# GG (GST - ICS linker - GFP model substrate for ICE) [GST: P08515], sequence (P08515 whole entry, looked up): as above
binder,measurement,setting,value
KARKEAELAAATAEQ (modifications not checked) [LEPB],Kd,[1],2 µM
interleukin converting enzyme (ICE) (protein) NPAMPTSSGSEGNVKLCSLEEAQRIWKQKSAEIYPIMDKSSRTRLALIICNEEFDSIPRRTGAEVDITGMTMLLQNLGYSVDVKKNLTASDMTTELEAFAHRPEHKTSDSTFLVFMSHGIREGICGKKHSEQVPDILQLNAIFNMLNTKNCPSLKDKPKVIIIQACRGDSPGVVWFKDSVGVSGNLSLPTTEEFEDDAIKKAHIEKDFIAFCSSTPDNVSWRHPTMGSVFIGRLIEHMQEYACSCDVEEIFRKVRFSFEQPDGRAQMPTTERVTLTRCFYLFPGH,cleavage of substrate by purified ICE,[2],Purified ICE cuts both the GG and GM substrates efficiently under these conditions
same,cleavage of substrate by purified ICE,[3],Purified ICE cuts both the GG and GM substrates efficiently under these conditions
"KARKEAELAAATAEQ (peptide, from a related filing) [synthetic LEPB]",IC50 of inhibition of the cleavage of GG by ICE,[4],50 to 100 µM
same,"IC50 (read off the curve), inhibition of ICE cleavage of GG",[5],80 µM
